Where no end group is shown, it is not given here.

In experiment [1] the target is hDLG1 PDZ1+2 tandem (human) (UniProt Q12959). Briefly: NMR titration.
Experiment [2] concerns the target hDLG1 PDZ1 domain (human). Briefly: NMR titration.
The target in experiment [3] is hDLG1 PDZ1 domain (human). Kind of experiment: ITC. Background: ITC needs no label: the signal is the heat of the interaction.
Experiment [4] has as its target hDLG1 PDZ2 domain (human). Briefly: ITC.
The target of experiment [5] is syntenin-1 PDZ1 domain (human). Briefly: NMR titration.
syntenin-1 PDZ1 domain (human), sequence (O00560 whole entry, the tested form may be a part): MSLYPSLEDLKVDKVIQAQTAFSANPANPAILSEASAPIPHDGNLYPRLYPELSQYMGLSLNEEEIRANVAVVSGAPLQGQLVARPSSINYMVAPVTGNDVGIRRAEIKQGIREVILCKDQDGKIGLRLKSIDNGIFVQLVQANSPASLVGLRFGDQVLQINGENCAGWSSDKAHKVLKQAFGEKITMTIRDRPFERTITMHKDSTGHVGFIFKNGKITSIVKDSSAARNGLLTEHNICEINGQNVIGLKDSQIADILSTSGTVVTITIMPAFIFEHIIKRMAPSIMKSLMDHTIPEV
Experiment [6] has as its target syntenin-1 PDZ2 domain (human). Briefly: NMR titration.

hDLG1 PDZ1 domain (human), sequence (Q12959 219-551): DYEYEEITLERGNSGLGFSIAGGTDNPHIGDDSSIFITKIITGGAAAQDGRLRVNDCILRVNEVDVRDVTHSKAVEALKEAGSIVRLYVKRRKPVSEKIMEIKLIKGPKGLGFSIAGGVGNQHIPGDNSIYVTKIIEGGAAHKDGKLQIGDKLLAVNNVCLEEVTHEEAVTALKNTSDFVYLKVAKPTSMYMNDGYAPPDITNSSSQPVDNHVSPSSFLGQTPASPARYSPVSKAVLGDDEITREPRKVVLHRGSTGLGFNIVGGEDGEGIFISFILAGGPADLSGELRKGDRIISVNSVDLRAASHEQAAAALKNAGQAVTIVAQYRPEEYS
hDLG1 PDZ2 domain (human), sequence (Q12959 219-551): as above
syntenin-1 PDZ2 domain (human), sequence (O00560 whole entry, the tested form may be a part): as the sequence (O00560 whole entry, the tested form may be a part) above

What is called Kd is the free concentration of one partner at which half of the binding sites on the other are occupied at equilibrium, for simple one-to-one binding. Lower therefore signals a tighter complex. As to “Tax2 10mer peptide (last 10 amino acids of Tax-2)”, in experiment [1], the Kd was over 5000 µM.
Regarding SEKHFRETEV (not fully specified (C-terminus)) [C-terminally amidated Tax-1 10mer peptide (Tax-1mod)], the dissociation constant Kd in experiment [2] was 951 µM.
For orientation: stoichiometry N means the number of molecules, sites or subunits per partner or assembly. As to SEKHFRETEV [Tax-1 10mer peptide (last 10 C-terminal amino acids of Tax-1)], the Kd in experiment [3] turned out to be 2.7 µM; in experiment [4], 0.9 µM; in experiment [5], 2580 µM; in experiment [6] it was 1550 µM. The dH was -8 kcal/mol in experiment [3] and -10.4 kcal/mol in experiment [4]. The stoichiometry N is 1.03 in experiment [3] and 0.99 in experiment [4].

These data come from article doi:10.1101/2021.08.25.457680.
